This is an account of results in publication PMC6068138, “Identification of a 57S translation complex containing closed-loop factors and the 60S ribosome subunit” (Scientific Reports, 2018).

What all share (conditions): partners not purified
The target in test [1] is T1, Flag-PAB1 (poly(A)-binding protein) (Saccharomyces cerevisiae, UniProt P04147 1-577).
T1 construct: bait of the one-step Flag pull down; also called PAB1-Flag; source: S. cerevisiae, expressed from plasmid YC776 (Flag-PAB1 URA3), in cell extract
T1 sequence (looked up): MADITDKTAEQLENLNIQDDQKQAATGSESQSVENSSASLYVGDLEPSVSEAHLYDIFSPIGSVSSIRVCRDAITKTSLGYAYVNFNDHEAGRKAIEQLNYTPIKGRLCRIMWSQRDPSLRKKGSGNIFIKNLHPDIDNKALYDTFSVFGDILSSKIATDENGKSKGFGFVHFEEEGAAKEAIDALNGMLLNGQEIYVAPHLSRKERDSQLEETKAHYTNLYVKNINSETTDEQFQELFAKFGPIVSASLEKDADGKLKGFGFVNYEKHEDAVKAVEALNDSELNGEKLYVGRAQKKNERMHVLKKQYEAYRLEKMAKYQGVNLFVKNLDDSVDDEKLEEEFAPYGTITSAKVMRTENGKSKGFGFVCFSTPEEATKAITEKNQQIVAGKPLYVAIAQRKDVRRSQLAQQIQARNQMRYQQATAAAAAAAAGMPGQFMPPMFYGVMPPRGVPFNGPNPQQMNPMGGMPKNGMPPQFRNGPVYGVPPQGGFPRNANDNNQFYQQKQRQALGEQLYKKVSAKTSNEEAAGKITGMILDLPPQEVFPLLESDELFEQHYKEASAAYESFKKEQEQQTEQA
The test can be described thus: co-IP + AUC; one-step Flag pull down of Flag-PAB1 from yeast cell extracts (cycloheximide added before lysis); Flag eluate analysed by AU-FDS for the GFP tagged protein, 20 °C, 15,000 rpm; cells on glucose, glucose depleted 10 min, glucose added back 1 min, or 30 °C to 46 °C 1 min.

Test [2] concerns the target T1, Flag-PAB1 (poly(A)-binding protein). As to the kind of experiment: co-IP + AUC; stoichiometric analysis: Flag-PAB1 purified material split and run at the same time by AU-FDS (GFP protein) and AU-A230 (total material); standards STM1-GFP and RPS4B-GFP; values relative to 100 mRNA bound by ribosomes; cells on glucose, 30 °C to 46 °C 1 min, or glucose depleted 10 min and added back 1 min.

Test [3] shares this target. Described as above. This is another data set of the same source.
Test [4] deals with T2, eIF4E-Flag (mRNA cap binding protein) (Saccharomyces cerevisiae, UniProt P07260 1-213).
T2 construct: bait of the one-step Flag pull down; also called eIF4-Flag; source: S. cerevisiae, expressed from plasmid YC801 (eIF4E-Flag URA3), in cell extract
T2 sequence (looked up): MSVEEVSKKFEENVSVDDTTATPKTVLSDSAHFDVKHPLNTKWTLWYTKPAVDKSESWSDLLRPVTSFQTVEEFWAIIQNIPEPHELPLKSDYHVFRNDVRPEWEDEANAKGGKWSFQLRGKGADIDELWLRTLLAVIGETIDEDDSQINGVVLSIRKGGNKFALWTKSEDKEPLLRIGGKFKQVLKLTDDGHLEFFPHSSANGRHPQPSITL
The test can be described thus: co-IP + AUC; stoichiometric analysis: eIF4E-Flag purified material split and run at the same time by AU-FDS (GFP protein) and AU-A230 (total material); standards STM1-GFP and RPS4B-GFP; values relative to 100 mRNA bound by ribosomes; cells on glucose.

B1: translation termination factor eRF1 (natural protein, Saccharomyces cerevisiae, UniProt P12385 1-437, looked up)
chain: MDNEVEKNIEIWKVKKLVQSLEKARGNGTSMISLVIPPKGQIPLYQKMLTDEYGTASNIKSRVNRLSVLSAITSTQQKLKLYNTLPKNGLVLYCGDIITEDGKEKKVTFDIEPYKPINTSLYLCDNKFHTEVLSELLQADDKFGFIVMDGQGTLFGSVSGNTRTVLHKFTVDLPKKHGRGGQSALRFARLREEKRHNYVRKVAEVAVQNFITNDKVNVKGLILAGSADFKTDLAKSELFDPRLACKVISIVDVSYGGENGFNQAIELSAEALANVKYVQEKKLLEAYFDEISQDTGKFCYGIDDTLKALDLGAVEKLIVFENLETIRYTFKDAEDNEVIKFAEPEAKDKSFAIDKATGQEMDVVSEEPLIEWLAANYKNFGATLEFITDKSSEGAQFVTGFGGIGAMLRYKVNFEQLVDESEDEYYDEDEGSDYDFI
notes: translation termination factor eRF1, Saccharomyces cerevisiae; source: S. cerevisiae, in cell extract
As to B1, in test [1], the “fold change of abundance in the 77S complex, glucose depleted 10 min against glucose” value was 4 fold and the “fold change of association with the 77S complex, 46 °C 1 min against 30 °C” value was 2 fold.

B2: eIF4E, GFP tagged (natural protein, Saccharomyces cerevisiae, UniProt P07260 1-213, looked up)
chain: MSVEEVSKKFEENVSVDDTTATPKTVLSDSAHFDVKHPLNTKWTLWYTKPAVDKSESWSDLLRPVTSFQTVEEFWAIIQNIPEPHELPLKSDYHVFRNDVRPEWEDEANAKGGKWSFQLRGKGADIDELWLRTLLAVIGETIDEDDSQINGVVLSIRKGGNKFALWTKSEDKEPLLRIGGKFKQVLKLTDDGHLEFFPHSSANGRHPQPSITL
notes: source: S. cerevisiae strain carrying the GFP fusion, in cell extract
On to B2, for which, in test [2], the “abundance in the Flag-PAB1 39S complex (30 °C to 46 °C 1 min)” value was 20 ± 2.5 relative to 100 mRNA, the “abundance in the Flag-PAB1 39S complex (Glu + − 10 min + 1 min)” value was 14 ± 3.8 relative to 100 mRNA, the “abundance in the Flag-PAB1 57S complex (30 °C to 46 °C 1 min)” value was 21 ± 9.4 relative to 100 mRNA and the “abundance in the Flag-PAB1 57S complex (Glu + − 10 min +1 min)” value is 5.1 ± 2.1 relative to 100 mRNA. Further, in test [3], the “abundance in the Flag-PAB1 39S complex (Glc+)” value was 28 ± 9.5 relative to 100 mRNA and the “abundance in the Flag-PAB1 57S complex (Glc+)” value was 14 ± 2.9 relative to 100 mRNA.

B3: eIF4G2-GFP (natural protein, Saccharomyces cerevisiae, UniProt P39936 1-914, looked up)
chain: MTDQRGPPPPHPQQANGYKKFPPHDNQYSGANNSQPNNHYNENLYSAREPHNNKQYQSKNGKYGTNKYNNRNNSQGNAQYYNNRFNNGYRLNNNDYNPAMLPGMQWPANYYAPQMYYIPQQMVPVASPPYTHQPLNTNPEPPSTPKTTKIEITTKTGERLNLKKFHEEKKASKGEEKNDGVEQKSKSGTPFEKEATPVLPANEAVKDTLTETSNEKSTSEAENTKRLFLEQVRLRKAAMERKKNGLISETEKKQETSNHDNTDTTKPNSVIESEPIKEAPKPTGEANEVVIDGKSGASVKTPQHVTGSVTKSVTFNEPENESSSQDVDELVKDDDTTEISDTTGGKTVNKSDDETINSVITTEENTVKETEPSTSDIEMPTVSQLLETLGKAQPISDIYEFAYPENVERPDIKYKKPSVKYTYGPTFLLQFKDKLKFRPDPAWVEAVSSKIVIPPHIARNKPKDSGRFGGDFRSPSMRGMDHTSSSRVSSKRRSKRMGDDRRSNRGYTSRKDREKAAEKAEEQAPKEEIAPLVPSANRWIPKSRVKKTEKKLAPDGKTELFDKEEVERKMKSLLNKLTLEMFDSISSEILDIANQSKWEDDGETLKIVIEQIFHKACDEPHWSSMYAQLCGKVVKDLDPNIKDKENEGKNGPKLVLHYLVARCHEEFEKGWADKLPAGEDGNPLEPEMMSDEYYIAAAAKRRGLGLVRFIGYLYCLNLLTGKMMFECFRRLMKDLNNDPSEETLESVIELLNTVGEQFEHDKFVTPQATLEGSVLLDNLFMLLQHIIDGGTISNRIKFKLIDVKELREIKHWNSAKKDAGPKTIQQIHQEEEQLRQKKNSQRSNSRFNNHNQSNSNRYSSNRRNMQNTQRDSFASTKTGSFRNNQRNARKVEEVSQAPRANMFDALMNNDGDSD
notes: eIF4G2, Saccharomyces cerevisiae; also called TIF4632-GFP; source: S. cerevisiae strain RP2384 (TIF4632-GFP::G418), in cell extract
As to B3, in test [4], the “abundance in the eIF4E-Flag 39S complex (Glc+)” value was 29 ± 5.4 relative to 100 mRNA and the “abundance in the eIF4E-Flag 57S complex (Glc+)” value was 32 ± 11 relative to 100 mRNA. For the same molecule, in test [2], the “abundance in the Flag-PAB1 39S complex (30 °C to 46 °C 1 min)” value is 12 ± 8.1 relative to 100 mRNA, the “abundance in the Flag-PAB1 39S complex (Glu + − 10 min + 1 min)” value is 5.3 ± 2.7 relative to 100 mRNA, the “abundance in the Flag-PAB1 57S complex (30 °C to 46 °C 1 min)” value is 3.8 ± 2.3 relative to 100 mRNA and the “abundance in the Flag-PAB1 57S complex (Glu + − 10 min +1 min)” value is 3.2 ± 0.45 relative to 100 mRNA. In test [3], the “abundance in the Flag-PAB1 39S complex (Glc+)” value is 8.3 ± 3.4 relative to 100 mRNA and the “abundance in the Flag-PAB1 57S complex (Glc+)” value is 3.5 ± 1.4 relative to 100 mRNA.
